Results reported in the supplement of paper PMC7877785.
± gives the uncertainty stated by the source.

Assay: self-splicing fitness, log relative to wild type (ln ratio); higher = more splicing; Tetrahymena group I intron in knt gene, E. coli kanamycin selection, DiMSum; sequences stand for … in CUCUCU…GGAGGGAAAAGUUAUCAGGCAUGCACCUGGUAGCUAGUCUUUAAACCAAUAGAUUGCAUCGGUUUAAAAGGCAAGACCGUCAAAUUGCGGGAAAGGGGUCAACAGCCGUUCAGUACCAAGUCUCAGGGGAAACUUUGAGAUGGCCUUGCAAAGGGUAUGGUAAUAAGCUGACGGACAUGGUCCUAACCACGCAGCCAAGUCCUAAGUCAACAGAUCUUCUGUUGAUAUGGAUGCAGUUCACAGACUAAAUGUCGGUCGGGGAAGAUGUAUUCUUCUCAUAAGAUAUAGUCGGACCUCUCCUUAAUGGGAGCUAGCGGAUGAAGUGAUGCAACACUGGAGCCGCUGGGAACUAAUUUGUAUGCGAAAGUAUAUUGAUUAGUUUUGGAGUACUCGUGGUCG
How it was run: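 Fitness was computed with DiMSum as the error-weighted combination of replicate fold changes, kanamycin versus none, each normalised to wild type. The library randomised all eight intron nucleotides of the P1ex region, with the intron placed in the knt kanamycin-resistance gene on pET-22b(+) in E. coli BL21(DE3). Six replicate transformations were grown overnight at 37°C or 30°C on LB agar with or without 25 μg/mL kanamycin, plus 100 μg/mL carbenicillin, 50 μM IPTG and 0.2% rhamnose. Pooled colonies were amplicon-sequenced on an Illumina HiSeq 2500.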

Row | Sequence | self-splicing fitness (ln) (30 °C) | self-splicing fitness (ln) (37 °C)
1 | UGGCAGCAAUAUUACGCUCA | -0.353 ± 0.13 | 0.629 ± 0.18
2 | GGUCAGCAAUAUUACGAACU | -0.446 ± 0.25 | -1.74 ± 0.21
3 | AAGGAGCAAUAUUACGCAAA | -3.1 ± 0.3 | -2.7 ± 0.32
4 | UACAAGCAAUAUUACGAACC | – | -0.357 ± 0.23
5 | CAACAGCAAUAUUACGGUGU | -3.34 ± 0.12 | -2.55 ± 0.14
6 | CGCAAGCAAUAUUACGAUCA | -1.58 ± 0.12 | 0.00155 ± 0.11
7 | ACGGAGCAAUAUUACGGUCU | -3.07 ± 0.21 | -2.44 ± 0.26
8 | GUAAAGCAAUAUUACGAAGU | -1.47 ± 0.077 | -0.327 ± 0.098
9 | CUGAAGCAAUAUUACGAGAU | -2.63 ± 0.15 | -1.57 ± 0.15
10 | UAUGAGCAAUAUUACGUCUG | -0.9 ± 0.13 | -0.416 ± 0.15
11 | AACGAGCAAUAUUACGACUA | -1.81 ± 0.21 | -0.213 ± 0.18
12 | GGGUAGCAAUAUUACGUCUG | -1.21 ± 0.12 | -1.15 ± 0.14
13 | AUUUAGCAAUAUUACGCGUA | -1.36 ± 0.12 | -1 ± 0.14
14 | CGCCAGCAAUAUUACGUUAG | -0.475 ± 0.074 | 0.385 ± 0.099
15 | AUUCAGCAAUAUUACGAUGU | 0.173 ± 0.082 | 0.209 ± 0.099
16 | UCGCAGCAAUAUUACGCGUA | -1.83 ± 0.12 | -0.123 ± 0.11
17 | UCGUAGCAAUAUUACGCCGG | -0.692 ± 0.13 | -2.41 ± 0.28
18 | UGGAAGCAAUAUUACGGGCU | -3.13 ± 0.27 | -1.32 ± 0.2
19 | CACCAGCAAUAUUACGUAAC | -2.87 ± 0.13 | -0.914 ± 0.14
20 | CCGCAGCAAUAUUACGGUCG | -0.439 ± 0.053 | 0.0144 ± 0.066
21 | CAAUAGCAAUAUUACGCCUG | -0.752 ± 0.075 | 0.366 ± 0.088
22 | AGGGAGCAAUAUUACGAAAU | -3.18 ± 0.35 | -1.22 ± 0.24
23 | AAUUAGCAAUAUUACGAUCC | -0.705 ± 0.18 | -0.148 ± 0.26
24 | GUCAAGCAAUAUUACGUUCC | -1.5 ± 0.11 | -0.728 ± 0.13
25 | AAGUAGCAAUAUUACGCAGU | – | -1.76 ± 0.19

Row | Sequence | self-splicing fitness (ln) (30 °C) | self-splicing fitness (ln) (37 °C)
26 | AUCCAGCAAUAUUACGAUAG | -2.71 ± 0.25 | -2.84 ± 0.31
27 | ACCGAGCAAUAUUACGGCUA | -0.869 ± 0.096 | -0.288 ± 0.091
28 | GUCUAGCAAUAUUACGAAUA | -1.87 ± 0.17 | -0.494 ± 0.14
29 | GAGCAGCAAUAUUACGUGUU | -3.3 ± 0.33 | -2.81 ± 0.22
30 | UAGCAGCAAUAUUACGCCUU | -0.751 ± 0.078 | -0.21 ± 0.13
31 | UUGCAGCAAUAUUACGGUGC | -3.79 ± 0.26 | -2.67 ± 0.26
32 | CCAUAGCAAUAUUACGAUAC | -3 ± 0.29 | -2.33 ± 0.23
33 | GAGAAGCAAUAUUACGUUUC | -3.64 ± 0.32 | -3.08 ± 0.27
34 | GGAUAGCAAUAUUACGGCAC | -1.16 ± 0.14 | -0.0176 ± 0.17
35 | GGGGAGCAAUAUUACGUUUG | – | -2.43 ± 0.37
36 | AAGUAGCAAUAUUACGCUGA | -1.36 ± 0.15 | -0.457 ± 0.14
37 | GAGGAGCAAUAUUACGACAG | -1.38 ± 0.36 | -1.5 ± 0.39
38 | GACUAGCAAUAUUACGACAC | -0.0525 ± 0.075 | -0.0737 ± 0.093
39 | AAUUAGCAAUAUUACGGAUG | -2.06 ± 0.12 | -0.146 ± 0.15
40 | AACCAGCAAUAUUACGCCAU | -2.81 ± 0.15 | -1.42 ± 0.11
41 | AUGUAGCAAUAUUACGAGUU | -1.68 ± 0.11 | -0.948 ± 0.11
42 | GAUUAGCAAUAUUACGUAUG | -1.75 ± 0.065 | -1.33 ± 0.087
43 | CGGAAGCAAUAUUACGAUUG | -0.86 ± 0.073 | -0.25 ± 0.095
44 | CGCGAGCAAUAUUACGGUAU | -3.65 ± 0.34 | -2.81 ± 0.34
45 | GGAGAGCAAUAUUACGACUC | -1.21 ± 0.23 | -0.0732 ± 0.34
46 | UCGUAGCAAUAUUACGCACU | -2.67 ± 0.11 | -2.16 ± 0.11
47 | AUCUAGCAAUAUUACGCGAA | -2 ± 0.24 | -0.373 ± 0.14
48 | UGCCAGCAAUAUUACGAUCA | -0.629 ± 0.099 | 0.465 ± 0.13
49 | AGUGAGCAAUAUUACGCCAG | – | -2.12 ± 0.45
50 | UACUAGCAAUAUUACGGUAU | -2.78 ± 0.33 | -2.63 ± 0.36

Row | Sequence | self-splicing fitness (ln) (30 °C) | self-splicing fitness (ln) (37 °C)
51 | ACGUAGCAAUAUUACGCCGA | -1.34 ± 0.23 | -0.566 ± 0.18
52 | AAACAGCAAUAUUACGAUAU | -1.82 ± 0.08 | -0.63 ± 0.097
53 | ACUCAGCAAUAUUACGACGA | -0.9 ± 0.087 | -0.164 ± 0.11
54 | UGUCAGCAAUAUUACGCUUC | – | -1.76 ± 0.21
55 | AAUUAGCAAUAUUACGAGCU | -1.02 ± 0.12 | -0.169 ± 0.15
56 | AGAAAGCAAUAUUACGCUCG | 0.431 ± 0.14 | 0.318 ± 0.18
57 | UACGAGCAAUAUUACGCACG | -2.94 ± 0.2 | -1.3 ± 0.18
58 | CACCAGCAAUAUUACGGACA | -2.01 ± 0.1 | -0.603 ± 0.086
59 | CGAUAGCAAUAUUACGAUAG | -0.572 ± 0.089 | -0.275 ± 0.1
60 | CUGUAGCAAUAUUACGUCAU | -4.07 ± 0.3 | -3.14 ± 0.24
61 | GACCAGCAAUAUUACGGCGC | -0.331 ± 0.09 | 0.162 ± 0.1
62 | AGAUAGCAAUAUUACGCAAC | -2.05 ± 0.34 | -1.39 ± 0.24
63 | CGCAAGCAAUAUUACGCGUC | -3.7 ± 0.37 | -3.31 ± 0.35
64 | ACGUAGCAAUAUUACGAGCA | -0.664 ± 0.2 | -1.82 ± 0.19
65 | GGAAAGCAAUAUUACGUGCG | -0.344 ± 0.11 | -0.596 ± 0.12
66 | AGAUAGCAAUAUUACGAAAU | -2.87 ± 0.13 | -0.838 ± 0.12
67 | GAGCAGCAAUAUUACGGACU | -1.32 ± 0.082 | -0.127 ± 0.11
68 | UGUCAGCAAUAUUACGUGAU | -2.85 ± 0.13 | -1.81 ± 0.14
69 | CGGCAGCAAUAUUACGGGCA | -2.31 ± 0.26 | -0.644 ± 0.13
70 | CCAUAGCAAUAUUACGAUGG | -3.35 ± 0.17 | -2.38 ± 0.18
71 | UACGAGCAAUAUUACGACAU | -3.899 ± 0.031 | -2.47 ± 0.04
72 | GCCAAGCAAUAUUACGUCAU | -2.96 ± 0.22 | -2.59 ± 0.18
73 | CAAGAGCAAUAUUACGUGGA | -3.87 ± 0.28 | -2.43 ± 0.15
74 | CGGAAGCAAUAUUACGCGGU | -3.98 ± 0.29 | -2.73 ± 0.22
75 | GGGGAGCAAUAUUACGACAA | -1.55 ± 0.42 | –

Row | Sequence | self-splicing fitness (ln) (30 °C) | self-splicing fitness (ln) (37 °C)
76 | UGCGAGCAAUAUUACGGUGG | -3.04 ± 0.23 | -3.1 ± 0.33
77 | CUUCAGCAAUAUUACGCGCC | -3.28 ± 0.3 | -1.92 ± 0.24
78 | CGAAAGCAAUAUUACGCAUA | -3.13 ± 0.25 | -2.72 ± 0.2
79 | GAAAAGCAAUAUUACGUCGC | -1.38 ± 0.08 | -0.835 ± 0.086
80 | UACCAGCAAUAUUACGGCGA | -0.21 ± 0.13 | 0.254 ± 0.19
81 | CGCUAGCAAUAUUACGGACG | -2.4 ± 0.17 | -0.45 ± 0.17
82 | CCUGAGCAAUAUUACGAUAU | -4.45 ± 0.37 | -2.39 ± 0.23
83 | GCGUAGCAAUAUUACGGCUA | -1.92 ± 0.26 | -0.79 ± 0.2
84 | ACAAAGCAAUAUUACGGGUC | -3.18 ± 0.14 | -1.76 ± 0.2
85 | AGAUAGCAAUAUUACGAUGC | -2.02 ± 0.15 | -0.736 ± 0.16
86 | AUCCAGCAAUAUUACGCCCU | -0.182 ± 0.15 | -0.00746 ± 0.21
87 | CUAGAGCAAUAUUACGAUAC | -2.63 ± 0.35 | -2.25 ± 0.34
88 | GUUAAGCAAUAUUACGUUCA | -0.268 ± 0.09 | -0.472 ± 0.11
89 | CGUCAGCAAUAUUACGGAAU | -4.05 ± 0.37 | -2.83 ± 0.21
90 | UAGUAGCAAUAUUACGGCGC | -1.6 ± 0.46 | -1.4 ± 0.44
91 | AGUAAGCAAUAUUACGUUUU | -3.28 ± 0.14 | -2.19 ± 0.16
92 | GGGUAGCAAUAUUACGACAC | -0.676 ± 0.33 | -0.155 ± 0.35
93 | UUAGAGCAAUAUUACGAAAA | -1.66 ± 0.13 | -0.776 ± 0.15
94 | CGGAAGCAAUAUUACGUUUA | -3.07 ± 0.24 | -2.06 ± 0.17
95 | ACUUAGCAAUAUUACGAGGU | -3.47 ± 0.22 | -1.96 ± 0.21
96 | CGGCAGCAAUAUUACGGCUG | -3.69 ± 0.47 | -2.23 ± 0.27
97 | GCUUAGCAAUAUUACGGGAU | -1.56 ± 0.074 | -0.453 ± 0.09
